Paper PMC6171931

Biological target: HCV NS5B (RNA-dependent RNA polymerase), JFH1 (Hepatitis C virus (JFH1))
Experiment: proximity ligation

For “ATG5-12 conjugate (from UniProt Q9H1Y0 1-275; O94817 1-140) (complex)”, which PLA interaction signals per infected cell (signals per infected cell) is on record?
The PLA interaction signals per infected cell (signals per infected cell) was 380.
